Assays:
[1] = target: T1, human plasma-derived von Willebrand factor (VWF) (human, UniProt P04275 764-2813); assay: SPR; Biacore T100, 25°C; human plasma-derived VWF immobilised on flow cells, FVIII variants infused to normalized capture levels, then human α-thrombin at different concentrations applied and rates of release determined; conditions: both partners purified
T1 construct: von Willebrand factor, human, derived from plasma; Plasma VWF is a multimer; also called human VWF; source: human plasma-derived

[2] = target: T1, human plasma-derived von Willebrand …; assay: SPR; Biacore T100, 37°C; human plasma-derived VWF immobilised on flow cells, FVIII variants infused to normalized capture levels, then human α-thrombin at different concentrations applied and rates of release determined; conditions: both partners purified

thrombin EC50 for release from VWF [1]: 3.3 ± 0.3 U/mL | thrombin EC50 for release from VWF [2]: 4 ± 0.2 U/mL
B1: BDD rFVIII (recombinant B-domain-deleted factor VIII, ReFacto / Xyntha) (natural protein)
chain 1: ATRRYYLGAVELSWDYMQSDLGELPVDARFPPRVPKSFPFNTSVVYKKTLFVEFTDHLFNIAKPRPPWMGLLGPTIQAEVYDTVVITLKNMASHPVSLHAVGVSYWKASEGAEYDDQTSQREKEDDKVFPGGSHTYVWQVLKENGPMASDPLCLTYSYLSHVDLVKDLNSGLIGALLVCREGSLAKEKTQTLHKFILLFAVFDEGKSWHSETKNSLMQDRDAASARAWPKMHTVNGYVNRSLPGLIGCHRKSVYWHVIGMGTTPEVHSIFLEGHTFLVRNHRQASLEISPITFLTAQTLLMDLGQFLLFCHISSHQHDGMEAYVKVDSCPEEPQLRMKNNEEAEDYDDDLTDSEMDVVRFDDDNSPSFIQIRSVAKKHPKTWVHYIAAEEEDWDYAPLVLAPDDRSYKSQYLNNGPQRIGRKYKKVRFMAYTDETFKTREAIQHESGILGPLLYGEVGDTLLIIFKNQASRPYNIYPHGITDVRPLYSRRLPKGVKHLKDFPILPGEIFKYKWTVTVEDGPTKSDPRCLTRYYSSFVNMERDLASGLIGPLLICYKESVDQRGNQIMSDKRNVILFSVFDENRSWYLTENIQRFLPNPAGVQLEDPEFQASNIMHSINGYVFDSLQLSVCLHEVAYWYILSIGAQTDFLSVFFSGYTFKHKMVYEDTLTLFPFSGETVFMSMENPGLWILGCHNSDFRNRGMTALLKVSSCDKNTGDYYEDSYEDISAYLLSKNNAIEPRSFSQNPPVLKRHQR
chain 2: EITRTTLQSDQEEIDYDDTISVEMKKEDFDIYDEDENQSPRSFQKKTRHYFIAAVERLWDYGMSSSPHVLRNRAQSGSVPQFKKVVFQEFTDGSFTQPLYRGELNEHLGLLGPYIRAEVEDNIMVTFRNQASRPYSFYSSLISYEEDQRQGAEPRKNFVKPNETKTYFWKVQHHMAPTKDEFDCKAWAYFSDVDLEKDVHSGLIGPLLVCHTNTLNPAHGRQVTVQEFALFFTIFDETKSWYFTENMERNCRAPCNIQMEDPTFKENYRFHAINGYIMDTLPGLVMAQDQRIRWYLLSMGSNENIHSIHFSGHVFTVRKKEEYKMALYNLYPGVFETVEMLPSKAGIWRVECLIGEHLHAGMSTLFLVYSNKCQTPLGMASGHIRDFQITASGQYGQWAPKLARLHYSGSINAWSTKEPFSWIKVDLLAPMIIHGIKTQGARQKFSSLYISQFIIMYSLDGKKWQTYRGNSTGTLMVFFGNVDSSGIKHNIFNPPIIARYIRLHPTHYSIRSTLRMELMGCDLNSCSMPLGMESKAISDAQITASSYFTNMFATWSPSKARLHLQGRSNAWRPQVNNPKEWLQVDFQKTMKVTGVTTQGVKSLLTSMYVKEFLISSSQDGHQWTLFFQNGKVKVFQGNQDSFTPVVNSLDPPLLTRYLRIHPQSWVHQIALRMEVLGCEAQDLY
modifications: ReFacto/Xyntha (moroctocog alfa): S743-Q1638 fusion by convention, the same junction as printed for rFVIIIFc; mainly two-chain after cleavage at R1648, with a minor single-chain fraction …
